Legend:
EGFR [1] = molecular target: T1, EGFR (UniProt P00533 25-645, limits assumed, biotinylated); experiment: direct bind ELISA, C-term VD;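 further: ELISA with antibody or DVD-Ig preparations applied to target antigen-coated plates for 1 h at room temperature, TMB colour development, absorbance read at 450 nm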
T1 construct: ELISA antigen; construct not described

RON [2] = molecular target: T2, RON (UniProt Q04912 25-571, biotinylated); experiment: direct bind ELISA, N-term VD;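 further: antibody or DVD-Ig preparations bound to immobilized target antigen on ELISA plates, 1 h at room temperature, TMB detection read as absorbance at 450 nm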
RON [3] = molecular target: T2, RON; experiment: direct bind ELISA, C-term VD;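 further: ELISA with antibody or DVD-Ig preparations applied to target antigen-coated plates for 1 h at room temperature, TMB colour development, absorbance read at 450 nm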
EGFR [4] = molecular target: T1, EGFR; experiment: direct bind ELISA, N-term VD;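 further: antibody or DVD-Ig preparations bound to immobilized target antigen on ELISA plates, 1 h at room temperature, TMB detection read as absorbance at 450 nm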
VEGF = molecular target: T3, VEGF (UniProt P15692-4 27-191, limits assumed, biotinylated); experiment: direct bind ELISA, N-term VD;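 further: antibody or DVD-Ig preparations bound to immobilized target antigen on ELISA plates, 1 h at room temperature, TMB detection read as absorbance at 450 nm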
T3 construct: ELISA antigen

IGF1R = molecular target: T4, IGF1R (UniProt P08069 31-932, limits assumed, biotinylated); experiment: direct bind ELISA, C-term VD;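 further: ELISA with antibody or DVD-Ig preparations applied to target antigen-coated plates for 1 h at room temperature, TMB colour development, absorbance read at 450 nm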
T4 construct: ELISA antigen

Binder	EC50 (EGFR [1])	EC50 (RON [2])	EC50 (RON [3])	EC50 (EGFR [4])	further results
DVD326 (bispecific antibody, DVD-Ig; HC S, LC S; variable parts only) VH: EVQLVQSGGGLVKPGGSLRLSCAASGFTFSSYAMHWVRQAPGKGLEWVAVISYDGSNKYYADSVKGRFTISRDNSKNTLYLQMNSLRAEDTAVYYCARFSGWPNNYYYYGMDVWGQGTTVTVSSASTKGPQVQLQESGPGLVKPSQTLSLTCTVSGYSISSDFAWNWIRQPPGKGLEWMGYISYSGNTRYQPSLKSRITISRDTSKNQFFLKLNSVTAADTATYYCVTAGRGFPYWGQGTLVTVSS VL: DVVMTQSPLSLPVTPGEPASISCRSSQSLLHSNGFNYVDWYLQKPGQSPHLLIYFGSYRASGVPDRFSGSGSGTDFTLKISRVEAEDVGVYYCMQALQTPPWTFGQGTKVEIRRTVAAPDIQMTQSPSSMSVSVGDRVTITCHSSQDINSNIGWLQQKPGKSFKGLIYHGTNLDDGVPSRFSGSGSGTDYTLTISSLQPEDFATYYCVQYAQFPWTFGGGTKLEIKR	29.9 nM	0.18 nM			
DVD768 (bispecific antibody, DVD-Ig; HC L, LC L; variable parts only) VH: EVQLVQSGGGLVKPGGSLRLSCAASGFTFSSYAMHWVRQAPGKGLEWVAVISYDGSNKYYADSVKGRFTISRDNSKNTLYLQMNSLRAEDTAVYYCARFSGWPNNYYYYGMDVWGQGTTVTVSSASTKGPSVFPLAPQVQLQESGPGLVKPSQTLSLTCTVSGYSISSDFAWNWIRQPPGKGLEWMGYISYSGNTRYQPSLKSRITISRDTSKNQFFLKLNSVTAADTATYYCVTAGRGFPYWGQGTLVTVSS VL: DVVMTQSPLSLPVTPGEPASISCRSSQSLLHSNGFNYVDWYLQKPGQSPHLLIYFGSYRASGVPDRFSGSGSGTDFTLKISRVEAEDVGVYYCMQALQTPPWTFGQGTKVEIRRTVAAPSVFIFPPDIQMTQSPSSMSVSVGDRVTITCHSSQDINSNIGWLQQKPGKSFKGLIYHGTNLDDGVPSRFSGSGSGTDYTLTISSLQPEDFATYYCVQYAQFPWTFGGGTKLEIKR	20.7 nM	0.18 nM			
DVD828 (bispecific antibody, DVD-Ig; HC S, LC L; variable parts only) VH: EVQLVQSGGGLVKPGGSLRLSCAASGFTFSSYAMHWVRQAPGKGLEWVAVISYDGSNKYYADSVKGRFTISRDNSKNTLYLQMNSLRAEDTAVYYCARFSGWPNNYYYYGMDVWGQGTTVTVSSASTKGPQVQLQESGPGLVKPSQTLSLTCTVSGYSISSDFAWNWIRQPPGKGLEWMGYISYSGNTRYQPSLKSRITISRDTSKNQFFLKLNSVTAADTATYYCVTAGRGFPYWGQGTLVTVSS VL: DVVMTQSPLSLPVTPGEPASISCRSSQSLLHSNGFNYVDWYLQKPGQSPHLLIYFGSYRASGVPDRFSGSGSGTDFTLKISRVEAEDVGVYYCMQALQTPPWTFGQGTKVEIRRTVAAPSVFIFPPDIQMTQSPSSMSVSVGDRVTITCHSSQDINSNIGWLQQKPGKSFKGLIYHGTNLDDGVPSRFSGSGSGTDYTLTISSLQPEDFATYYCVQYAQFPWTFGGGTKLEIKR	19.8 nM	0.2 nM			
DVD798 (bispecific antibody, DVD-Ig; HC L, LC S; variable parts only) VH: EVQLVQSGGGLVKPGGSLRLSCAASGFTFSSYAMHWVRQAPGKGLEWVAVISYDGSNKYYADSVKGRFTISRDNSKNTLYLQMNSLRAEDTAVYYCARFSGWPNNYYYYGMDVWGQGTTVTVSSASTKGPSVFPLAPQVQLQESGPGLVKPSQTLSLTCTVSGYSISSDFAWNWIRQPPGKGLEWMGYISYSGNTRYQPSLKSRITISRDTSKNQFFLKLNSVTAADTATYYCVTAGRGFPYWGQGTLVTVSS VL: DVVMTQSPLSLPVTPGEPASISCRSSQSLLHSNGFNYVDWYLQKPGQSPHLLIYFGSYRASGVPDRFSGSGSGTDFTLKISRVEAEDVGVYYCMQALQTPPWTFGQGTKVEIRRTVAAPDIQMTQSPSSMSVSVGDRVTITCHSSQDINSNIGWLQQKPGKSFKGLIYHGTNLDDGVPSRFSGSGSGTDYTLTISSLQPEDFATYYCVQYAQFPWTFGGGTKLEIKR	17.9 nM	0.18 nM			
DVD805 (bispecific antibody, DVD-Ig; HC L, LC S; variable parts only) VH: QVQLQESGPGLVKPSQTLSLTCTVSGYSISSDFAWNWIRQPPGKGLEWMGYISYSGNTRYQPSLKSRITISRDTSKNQFFLKLNSVTAADTATYYCVTAGRGFPYWGQGTLVTVSSASTKGPSVFPLAPEVQLLESGGGLVQPGGSLRLSCTASGFTFSSYAMNWVRQAPGKGLEWVSAISGSGGTTFYADSVKGRFTISRDNSRTTLYLQMNSLRAEDTAVYYCAKDLGWSDSYYYYYGMDVWGQGTTVTVSS VL: DIQMTQSPSSMSVSVGDRVTITCHSSQDINSNIGWLQQKPGKSFKGLIYHGTNLDDGVPSRFSGSGSGTDYTLTISSLQPEDFATYYCVQYAQFPWTFGGGTKLEIKRTVAAPDIQMTQFPSSLSASVGDRVTITCRASQGIRNDLGWYQQKPGKAPKRLIYAASRLHRGVPSRFSGSGSGTEFTLTISSLQPEDFATYYCLQHNSYPCSFGQGTKLEIKR				0.48 nM	EC50 (IGF1R): 0.99 nM
DVD827 (bispecific antibody, DVD-Ig; HC S, LC L; variable parts only) VH: QVQLQESGPGLVKPSQTLSLTCTVSGYSISSDFAWNWIRQPPGKGLEWMGYISYSGNTRYQPSLKSRITISRDTSKNQFFLKLNSVTAADTATYYCVTAGRGFPYWGQGTLVTVSSASTKGPEVQLVQSGGGLVKPGGSLRLSCAASGFTFSSYAMHWVRQAPGKGLEWVAVISYDGSNKYYADSVKGRFTISRDNSKNTLYLQMNSLRAEDTAVYYCARFSGWPNNYYYYGMDVWGQGTTVTVSS VL: DIQMTQSPSSMSVSVGDRVTITCHSSQDINSNIGWLQQKPGKSFKGLIYHGTNLDDGVPSRFSGSGSGTDYTLTISSLQPEDFATYYCVQYAQFPWTFGGGTKLEIKRTVAAPSVFIFPPDVVMTQSPLSLPVTPGEPASISCRSSQSLLHSNGFNYVDWYLQKPGQSPHLLIYFGSYRASGVPDRFSGSGSGTDFTLKISRVEAEDVGVYYCMQALQTPPWTFGQGTKVEIRR			6.57 nM	6.28 nM	

The next lines start with results.

EC50 (EGFR [1])	EC50 (RON [2])	EC50 (RON [3])	EC50 (EGFR [4])	Binder	further results
		25 nM	5.96 nM	DVD325 (bispecific antibody, DVD-Ig; HC S, LC S; variable parts only) VH: QVQLQESGPGLVKPSQTLSLTCTVSGYSISSDFAWNWIRQPPGKGLEWMGYISYSGNTRYQPSLKSRITISRDTSKNQFFLKLNSVTAADTATYYCVTAGRGFPYWGQGTLVTVSSASTKGPEVQLVQSGGGLVKPGGSLRLSCAASGFTFSSYAMHWVRQAPGKGLEWVAVISYDGSNKYYADSVKGRFTISRDNSKNTLYLQMNSLRAEDTAVYYCARFSGWPNNYYYYGMDVWGQGTTVTVSS VL: DIQMTQSPSSMSVSVGDRVTITCHSSQDINSNIGWLQQKPGKSFKGLIYHGTNLDDGVPSRFSGSGSGTDYTLTISSLQPEDFATYYCVQYAQFPWTFGGGTKLEIKRTVAAPDVVMTQSPLSLPVTPGEPASISCRSSQSLLHSNGFNYVDWYLQKPGQSPHLLIYFGSYRASGVPDRFSGSGSGTDFTLKISRVEAEDVGVYYCMQALQTPPWTFGQGTKVEIRR	
328 nM				DVD760 (bispecific antibody, DVD-Ig; HC S, LC S; variable parts only) VH: EVQLVESGGGLVQPGGSLRLSCAASGFTINASWIHWVRQAPGKGLEWVGAIYPYSGYTNYADSVKGRFTISADTSKNTAYLQMNSLRAEDTAVYYCARWGHSTSPWAMDYWGQGTLVTVSSASTKGPQVQLQESGPGLVKPSQTLSLTCTVSGYSISSDFAWNWIRQPPGKGLEWMGYISYSGNTRYQPSLKSRITISRDTSKNQFFLKLNSVTAADTATYYCVTAGRGFPYWGQGTLVTVSS VL: DIQMTQSPSSLSASVGDRVTITCRASQVIRRSLAWYQQKPGKAPKLLIYAASNLASGVPSRFSGSGSGTDFTLTISSLQPEDFATYYCQQSNTSPLTFGQGTKVEIKRTVAAPDIQMTQSPSSMSVSVGDRVTITCHSSQDINSNIGWLQQKPGKSFKGLIYHGTNLDDGVPSRFSGSGSGTDYTLTISSLQPEDFATYYCVQYAQFPWTFGGGTKLEIKR	EC50 (VEGF): 0.77 nM
			3.59 nM	DVD775 (bispecific antibody, DVD-Ig; HC L, LC L; variable parts only) VH: QVQLQESGPGLVKPSQTLSLTCTVSGYSISSDFAWNWIRQPPGKGLEWMGYISYSGNTRYQPSLKSRITISRDTSKNQFFLKLNSVTAADTATYYCVTAGRGFPYWGQGTLVTVSSASTKGPSVFPLAPEVQLLESGGGLVQPGGSLRLSCTASGFTFSSYAMNWVRQAPGKGLEWVSAISGSGGTTFYADSVKGRFTISRDNSRTTLYLQMNSLRAEDTAVYYCAKDLGWSDSYYYYYGMDVWGQGTTVTVSS VL: DIQMTQSPSSMSVSVGDRVTITCHSSQDINSNIGWLQQKPGKSFKGLIYHGTNLDDGVPSRFSGSGSGTDYTLTISSLQPEDFATYYCVQYAQFPWTFGGGTKLEIKRTVAAPSVFIFPPDIQMTQFPSSLSASVGDRVTITCRASQGIRNDLGWYQQKPGKAPKRLIYAASRLHRGVPSRFSGSGSGTEFTLTISSLQPEDFATYYCLQHNSYPCSFGQGTKLEIKR	EC50 (IGF1R): 2.77 nM
		0.64 nM	5.97 nM	DVD767 (bispecific antibody, DVD-Ig; HC L, LC L; variable parts only) VH: QVQLQESGPGLVKPSQTLSLTCTVSGYSISSDFAWNWIRQPPGKGLEWMGYISYSGNTRYQPSLKSRITISRDTSKNQFFLKLNSVTAADTATYYCVTAGRGFPYWGQGTLVTVSSASTKGPSVFPLAPEVQLVQSGGGLVKPGGSLRLSCAASGFTFSSYAMHWVRQAPGKGLEWVAVISYDGSNKYYADSVKGRFTISRDNSKNTLYLQMNSLRAEDTAVYYCARFSGWPNNYYYYGMDVWGQGTTVTVSS VL: DIQMTQSPSSMSVSVGDRVTITCHSSQDINSNIGWLQQKPGKSFKGLIYHGTNLDDGVPSRFSGSGSGTDYTLTISSLQPEDFATYYCVQYAQFPWTFGGGTKLEIKRTVAAPSVFIFPPDVVMTQSPLSLPVTPGEPASISCRSSQSLLHSNGFNYVDWYLQKPGQSPHLLIYFGSYRASGVPDRFSGSGSGTDFTLKISRVEAEDVGVYYCMQALQTPPWTFGQGTKVEIRR	
		1.16 nM	4.56 nM	DVD797 (bispecific antibody, DVD-Ig; HC L, LC S; variable parts only) VH: QVQLQESGPGLVKPSQTLSLTCTVSGYSISSDFAWNWIRQPPGKGLEWMGYISYSGNTRYQPSLKSRITISRDTSKNQFFLKLNSVTAADTATYYCVTAGRGFPYWGQGTLVTVSSASTKGPSVFPLAPEVQLVQSGGGLVKPGGSLRLSCAASGFTFSSYAMHWVRQAPGKGLEWVAVISYDGSNKYYADSVKGRFTISRDNSKNTLYLQMNSLRAEDTAVYYCARFSGWPNNYYYYGMDVWGQGTTVTVSS VL: DIQMTQSPSSMSVSVGDRVTITCHSSQDINSNIGWLQQKPGKSFKGLIYHGTNLDDGVPSRFSGSGSGTDYTLTISSLQPEDFATYYCVQYAQFPWTFGGGTKLEIKRTVAAPDVVMTQSPLSLPVTPGEPASISCRSSQSLLHSNGFNYVDWYLQKPGQSPHLLIYFGSYRASGVPDRFSGSGSGTDFTLKISRVEAEDVGVYYCMQALQTPPWTFGQGTKVEIRR	
